The nature of this data set: label from the status in PepcDB records.

On to “MYLVCGEALFDVFSLESAARSNELGFTAIAGGSPFNVAVGLRRLGVEAALFGGLSSDYLGARLRRVLEEEGVDCGFLVPSDAPTTLAMVGLDASGSAQYQFRGEGCADRQVRLEHLPTLDGRIRGLHVGSYTLVVTPVADTLLALVRRESGRRLVSLDPNVRLDPQPDIDLWRRRVEAFASHAHLIKASEEDLALLYPGRDPGEVARGWLNPRCRLVFVTHGGAGASVHCTHGSWSRPADTALPLRDTVGAGDTFQAATLAYLRRLDADSPAGLAALSREAIDAMLAFAIRAAAVTCSRVGPDLPFAHEL”, for which the protein production entry was “failed”. As for “MYNAQLGIGILKYVNTMTKYSALLVLFLFSMIANSINAQPFVALDNRNKIELNEHDLWFKTQSLDTNPSFLALSQLHQNANRVTSTFGGSGAYISKIKLTNTKGQKDTWFVNIHAVYLDIGTAYWQPEHGEPIVLESFGHMGSENPKLAHSQAFSLLLNQNESGTLWVYIQAKMFATPVVVELYSKKEFYKKQFITNSISTISFTVMMTLALIAFFIYLRTKYLVTLACTGYIGIQGLGWFTASGSFGHLLTVSAFNPVYSGIIIFPFAIASASQFTKLLFNCPQKHPKLTLTFNLLSIVCFSLGIIMPFIPFTQSFLISHIIATIWIPLCIGTGIFMLAKNDFRAKYYLIGNLVYGFTLAGYILSHLYKIDWNISLEVIVQIALTIDCMCILLSLSEWLQIQQKEFHRSYAISRIDPLTQIGNRFAQNEKLASLKGPYCITFIDLDGFKKINDKLGHEEGDKVLIATANIMQKKLQELGSIYRCGGDEFIWVVDIENVQQTEAIITKLSDLLLQTEKELQHRGWSEAGLSFGIATSFETLNQSECLSLADQRMYKYKQDKKSIKGLAACS”, the protein production result is listed as “failed”.

In the case of “MYNILLIFIAFLLVLLNAFFVSAEFGMVKLRATRIQAIKENYGLRGRILEQVHQNLDAYLSACQLGITLASLGLGWIGEPAFAELLGPLFVALGISSVHIVTISSFFIAFFLISFLHIVIGELMPKSIAIRQSELISIWTAVPLYWFYWIMYPAIWLLNTCSNFFLKLSGMDIKNEYEGFYSSEELKLILSGQHLQSELKEDEREILEHTLDLAELNVTEVMRPEDEMIIIDINEPFETIKDKILKYRYSRYPVYDSGTKEMIGVIHVKDLFADLLLQKNINTLKPYVRPVLKVSHKLPAMDLLRKFRAGMPHFALVYKHKSSLLGFVTLDNLLHILIGRIKDEFHKTHEDWVKNSDGTITTKGDCSLYSLERALDCDITLSPDEEELNTLYGLIITRHGKLPNEGEIIQFVEFDALIEKVQDSFITKIKVFPKIKN”, the protein production result is reported as “failed”. For the sequence “MYNKTILESQHTLIPMPSTSTNAQPTLAKQLFTMTWPMLFGVLSLMSFQLVDSAFIGQLGVLPLAAQGFTLPLQMVIIGIQVGLGIATTAVISKALGANDARYAKQLGGLVLMIGSIGVAVFGLLIWLLRYPILSLLSAPETVMPIIDSYWPWWLLSSWAGAVLYFYYSICRANGNTMLPGTMMMVTSGVNLVLDPLFIFTLDLGINGAALATLVAFGFGILVVAPRVKRNHWATTQWQDLNVMKSVTSIGNIMGPAMVSQLLPPLSSMLATKLLASFGTAAVAAWALGSRYEFFAIVSVLALTMSMPPMVGRLLGAKNYRDIQSLVGIAVKFILGFQLLIAAITFLLANPLALLMTSDTQVEQVLHMHLMIVPISLGSLGVCMLMVSICNALGKSYTALTISALRLFVFFLPCLWLGAQLDGIRGLLFGACVGNIMAGISAYLTYRKTIHKLAIKQATA”, the protein production result is given as “failed”. In the case of “MYSMLKRVITEKDLLRQIRLLEQLLNVPQLTAKRLAAQIQTTERTVFSDLQYIRSQLPADWSIETDSSGIRLRNQGNAQTNELWSLFLPQSISIQLLKELLFTKELVTTSFLSTSGVSYETLKRHIKKMNQALRDFHLTIQLTTMTIQLIGAESNIRIFYHRLLVPFTHNNYFFDDYSIHEEHYFQFLKQVYSSELTVETEEIFGACWFFINTIRNKANCRVSQFSFDSKDVLFQLYQPSLAKLYASEGIYLQGEESFFAFFCFLESWNYDNVYGETLASALHTHYSQLRKSLQQFVTNLSTEEARPDLIQTNLLDNLLLLFIKYTESPTLSEQFQLEYQELMTEQAAEDLALSKSNQELLEILSRYTTIEEPTYFLSLASLLEKQAIYSIQAQTMTAYFLFQGEPAWKAFLQQELAAYLGTRVKLQAIEYVELSQLTLNEADIIISNFPLDHLDLPVFYLSLIPTKNELRRLAELTLHSYF”, the protein production result was “not failed”. Consider “MYSSGNPTNIANPIKDASVQIDLKTVGGKLTLYQTTLCERISGDNIDLGLDLGSQSFLPTYNKNDIQLICCQADASVLWLVPDTVVTRFIQSLDWDTDMDITFTWVLNRDRPKGKETVKYERSVDPLDLPKRSDIQMVLNGSMDGFRVHNLYPKFFRVTGSGDVRSFEDQTDEVSADILINHANFKWWWSFHNLKASENISACEGMDGPVAIIMSEETPPPVGRFIRLQCSDLRMRIPYENLPSCDRLIAICEDLYAARAEGELGVEEVLYWTLVKIYRSPHMLLEYTKLDYDA”, for which the protein production entry is listed as “failed”. Regarding “MYTIYVPGLRDPDLCNHSLMAEILCIYSSNAFEKIRKYDNLFTYVDYGNLKESELYKKRNEEESSFLYKKRILSNNIQDKKLKFDIKKEQFNYGALLFFSLNDGEFLNYISENICGNSVEVLASNNSMTTLVCGDDKGFIRILRNNPKYDDFEIKNTQMIRDVDKECCTKLFNNKIIKIDERRRNSYQTKRKKSIDKQQDLLKKAKMENFSDH”, the protein production result was “failed”.

Consider “MYTYKLQDEKPICSEKLKRLYDSVGWWPERKEIDIQKMLKNSIAIGVWKENELIGFARVVSDGVFRAYLEDVVVHESVRNKGIGEKMLTMLLEEISHINIVSLFCGEKLIKFYGQQQFQVTK”, for which the protein production result is on record as “failed”.

With “MYVREVKDGKVVVAKARTSACGSCPAKNICLSDNEIKLEIDWCGEDLKPGDEVVVDIPEYDPLKVSTLVYFLPLVIFAVTVITGYLFRLKDWVTFVLALGSVFAYYSLFRFRRKDRKPPRILRKVS”, the protein production entry is on record as “failed”.

In the case of “NAEKVALAKKVADESAVLLENRNDILPLDLNKYKSVAVVGPNSNQAVLGDYAWTMGDTKEAVSLLQGLQESAGDKIMIRHAEGCDWWSQDKSHIAEAVEVVRNSDIAVVAVGTRSTYLGRSPKYSTAGEGFDLSSLELPGVQEELLKEIKKTGKPMIVVLIAGKPLAMPWVKENADALLVQWYAGEQQGCTLADILLGKVNPSGKLNVSFPRSTGNTPCFYNHFVTDREEPFDQPGTPEEPKGHYIFDKPEPLWNFGHGKSYTTF”, the protein production result is recorded as “not failed”. On to “NAEKVALAKKVADESAVLLENRNDILPLDLNKYKSVAVVGPNSNQAVLGDYAWTMGDTKEAVSLLQGLQESAGDKIMIRHAEGCDWWSQDKSHIAEAVEVVRNSDIAVVAVGTRSTYLGRSPKYSTAGEGFDLSSLELPGVQEELLKEIKKTGKPMIVVLIAGKPLAMPWVKENADALLVQWYAGEQQGCTLADILLGKVNPSGKLNVSFPRSTGNTPCFYNHFVTDREEPFDQPGTPEEPKGHYIFDKPEPLWNFGHGKSYTTFDYVD”, for which the protein production result is “failed”. The entry for “NDDIIVNWVNRTLSEAGKSTSIQSFKDKTISSSLAVVDLIDAIQPGCINYDLVKSGNLTEDDKHNNAKYAVSMARRIGARVYALPEDLVEVKPKMVMTVFACLMGRGMKRV” is “not failed”; for “NENNTVVAETKTSTASETSEPKQVISSKQQLASLYLQAKQSLFKQRALSATMYGLSQKDIGQVISSDMEFYSPENEKQLRAELLSISNTIAGIKLDDADITTKNNQQVMAGLTRYFAGEPNFNIGYIDTWMGLSPFIVNQINGPLIDIPRVMQNDQPITTEKEALDYIVRLGQFDKLAATIIEKQTADAAQNWLPSKVTLQGAIKYLKGFTSGSAEQHPFVNVFREKIEKVDSLTTEQKQSLITQVIAKVSQVVYPAYQSVEKASEQLLSEARSESGIWAQPKGSVYYQDAIKQLGDSELSPTQIHQIGLDEVARISGVMNEILLAQGYTKGTVGERMVALNEEPRFLYEDSIAGREELLSDINGYITEVTAKMAPVFRTTPSYQVEVKSFPVEVQDGAPGGQYTSPAVDGSKPGIYWINLRDMKANPKFGLKTLTYHEANPGHHWQIALNLDQAELPFLRRIAPYNAYTEGWALYSEQVAYELGMYENDPFGDLGRLQAELFRAVRLVVDTGLHDKRWTREQAISYMSEQTGTAESDVVAEIERYMAWPGQALGYKLGMLKILSLREQAKARLGDKFDLAEFHDVVLLNGAVPMAVLSRNVNHWLDNK” it is “not failed”. With “NGDQQTMVYIVSAKRKIIADRMLQELDLGVTMLQAVGAYKNNETEVIMCVMRKATLVKVRNLLKEVDPDAFMIVSTANEVFGEGFKNQYETEI”, the protein production result is “not failed”.

For “NGMDEEQRQKRRRIEVALIEYRETLEEQGMKNPEEIERKVEINRKRLEVDYGLS”, the protein production result is “not failed”. As to “NGQAITLASKHYGSVNSAADLKGMVLGIPFEYSVHALLLRDYLVSNAVDPIADLELRLLRPADMVAQLTVEGIDGFIGPGPFNERAISNGSGRIWLLTKQLWDKHPCCAVAMAKEWKAEHPTAAQGVLNALEEASAILSNPA”, the protein production result was “failed”. The entry for “NILFGISDTQECYNAIKFAVKLAHSLKEVRFTLLHVSMEVFIYSESGMMDYGQTEALEEEKAKALLKQFEDAFKKENIECESVLKSGDLIDVVLDMAKDYDLLLIGASESNLLYRLFISHQNSLVEQSSIPVVIAK” is “failed”; for “NKIPTTMAFRTVTDVDNAVNGLYDLMSGSGYYGAAMFAYGDMKGDDMQSSEESGVCNTCYMFNHRPNSLNAGSLWGRPFYILREAWNILNAIAEGKIESGDEKKLNALKGETMAVIALCQFDLTRCFGYPYTKDKGASLGAPLIDHLVGTYENPPRSTVAQAYDFIIETLEEAVTLMSEEKNNGRMNKYAARALLARIYLYHDDNRKAFDLADQLIKDADTSGSYALYPHEKYVAAWSVEAKFGSESFFEIANSVDDTPGRDSWGYLLNWYGYQKGFVTQKYAEQMLADPGDVRGHLLEENKYAGKTVWWLYKLRGTDLKTAPLECNNVVLRLSEVYLIAAEAGCKLGGDAAVQGLGYLNEIVKRGNPDNEVTMADYTLDRVLDERSKELVGEGHRFFDLLRNGKTIVRKGGYHLPSVDEEVDWDFYKCVLPIPEDQFIFSPEMEQNPGYPKN” it is “not failed”.

Turning to “NLLDDAVKRISEDPPCKCPTKFCVERLSQGRYRVGEKILFIRMLHNKHVMVRVGGGWETFAGYLLKHDPCRMLQISRVDGKTSP”, the protein production entry is reported as “not failed”. Take “NMRQVLKTDRLVLEPQSMARFDQWFAMERQRDEAGHRDLTEDQAWLRLCARQGMWDAYACGFYYLLDPVSGEMRGEAGFQFRRRGFGPGFDNHPEAAWAVASAHQGRGLAAEAMQALLAHHDRSSGRQRVVALIARSNLPSLRLAERLGFR”: the protein production result is given as “failed”. In the case of “NMTISDIQHAPDYALLSNDEQQLCIQLKILPKPYLVLKEVMFRELLKTGGNLSKSACRELLNIDPIKANRIYDFFQSQNWM”, the protein production result was “not failed”.

As to “NNDDDGTNKAQEIAGKYEGYSIGNCAMFTDYVMGEKSVATIVPNEDGTINVTYDSGSGEFKLNNIKVTSKTFEGSGQVELSMNDKPAGAKDFTLTGSIDEQQKLTLKVNVPSVMGGLTIEFIQGTLPISYHVSGTYNKEANLSVSVGSTTYPDITDCKVSIKRSSDDTVELTLKGLSNLNSSQTGRAMNLGDFTVTDVKVTSTDNSIFKIEGSINTTDTNNTPITGTLSGTVSNSETNITFTFKPGAMPIDITAMFKGKK”, the protein production result is “not failed”.

For the origin of these results see a protein production outcome set (Wang et al. 2014).
